Results reported in PMC2883074 (Molecular Microbiology, 2010).
Read-outs that look alike come from different tables or passages of the source.

Key:
SEC [1] = molecular target: the molecule itself; test: SEC
SEC [2] = molecular target: the molecule itself; test: SEC; remark: listed apart in the source
crystal structure = molecular target: the molecule itself; test: crystal structure

B1: HpMinEΔN (residues 29-77 of HpMinE) (domain or fragment, Helicobacter pylori, UniProt O25099 29-77, looked up)
chain: TLNLPYMEEMRKEIIAVIQKYTKSSDIHFKTLDSNQSVETIEVEIILPR
SEC [1]
  stoichiometry N: 3

B2: full-length Helicobacter pylori MinE (natural protein, UniProt O25099 1-77, looked up)
chain: MSLFDFFKNKGSAATATDRLKLILAKERTLNLPYMEEMRKEIIAVIQKYTKSSDIHFKTLDSNQSVETIEVEIILPR
SEC [2]
  stoichiometry N: 2

B3: Selenomethionine (Se-Met)-labelled HpMinE (natural protein, Helicobacter pylori, UniProt O25099 1-77, looked up)
chain: MSLFDFFKNKGSAATATDRLKLILAKERTLNLPYMEEMRKEIIAVIQKYTKSSDIHFKTLDSNQSVETIEVEIILPR
modifications: selenomethionine (Se-Met-labelled)
Crystal structure
  binding result: binds

B4: EcMinEΔN (residues 32-88 of EcMinE) (domain or fragment, E. coli, UniProt P0A734 32-88, looked up)
chain: SDAEPHYLPQLRKDILEVICKYVQIDPEMVTVQLEQKDGDISILELNVTLPEAEELK
SEC [1]
  stoichiometry N: 4
